Assays:
[1] = biological target: T1, microtubule (alpha/beta-tubulin, taxol-stabilized) (Sus scrofa, UniProt P02550); test: TIRF microscopy, no added salt
T1 chain 1: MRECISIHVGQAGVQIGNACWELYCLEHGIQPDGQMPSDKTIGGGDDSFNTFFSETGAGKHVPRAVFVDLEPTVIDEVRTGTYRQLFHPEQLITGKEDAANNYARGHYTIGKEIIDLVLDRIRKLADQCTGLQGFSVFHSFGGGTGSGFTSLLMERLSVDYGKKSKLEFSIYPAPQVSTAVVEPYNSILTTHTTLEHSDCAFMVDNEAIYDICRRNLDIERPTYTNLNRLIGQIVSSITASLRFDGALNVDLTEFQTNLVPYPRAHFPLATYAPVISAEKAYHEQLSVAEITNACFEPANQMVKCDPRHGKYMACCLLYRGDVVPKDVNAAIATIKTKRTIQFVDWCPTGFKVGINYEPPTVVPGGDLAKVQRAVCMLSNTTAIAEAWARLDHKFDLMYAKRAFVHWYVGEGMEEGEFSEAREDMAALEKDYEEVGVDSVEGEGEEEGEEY
T1 chain 2: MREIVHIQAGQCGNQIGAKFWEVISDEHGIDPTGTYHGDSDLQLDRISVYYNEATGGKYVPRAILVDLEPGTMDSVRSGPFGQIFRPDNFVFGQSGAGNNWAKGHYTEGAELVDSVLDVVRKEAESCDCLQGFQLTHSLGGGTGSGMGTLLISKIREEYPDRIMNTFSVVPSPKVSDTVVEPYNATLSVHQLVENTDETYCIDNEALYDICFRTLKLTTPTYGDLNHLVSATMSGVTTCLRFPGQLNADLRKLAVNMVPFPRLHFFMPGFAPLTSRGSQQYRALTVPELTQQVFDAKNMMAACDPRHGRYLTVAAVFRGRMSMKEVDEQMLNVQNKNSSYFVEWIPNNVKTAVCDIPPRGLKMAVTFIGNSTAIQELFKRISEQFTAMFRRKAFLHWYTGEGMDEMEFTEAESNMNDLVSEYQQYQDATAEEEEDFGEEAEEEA

[2] = biological target: T1, microtubule (alpha/beta-tubulin, …); test: TIRF microscopy, 150 mM salt

B1: HURP 1-285 (protein)
chain: MSSSHFASRHRKDISTEMIRTKIAHRKSLSQKENRHKEYERNRHFGLKDVNIPTLEGRILVELDETSQGLVPEKTNVKPRAMKTILGDQRKQMLQKYKEEKQLQKLKEQREKAKRGIFKVGRYRPDMPCFLLSNQNAVKAEPKKAIPSSVRITRSKAKDQMEQTKIDNESDVRAIRPGPRQTSEKKVSDKEKKVVQPVMPTSLRMTRSATQAAKQVPRTVSSTTARKPVTRAANENEPEGKVPSKGRPAKNVETKPDKGISCKVDSEENTLNSQTNATSGMNPDG
modifications: C-terminal eGFP, taxol-stabilized microtubules
Kd [1]: ~33 nM | Kd [2]: ~600 nM

— PMC11160874 (2024)
